One test concerns the target T1, human MICA*001 (human, UniProt Q29983 24-297).
T1 construct: C1R-neo cells transfected with human MICA*001, formalin fixed and paraffin embedded (or live cells for flow cytometry); also called C1R MICA*001 cells
T1 sequence: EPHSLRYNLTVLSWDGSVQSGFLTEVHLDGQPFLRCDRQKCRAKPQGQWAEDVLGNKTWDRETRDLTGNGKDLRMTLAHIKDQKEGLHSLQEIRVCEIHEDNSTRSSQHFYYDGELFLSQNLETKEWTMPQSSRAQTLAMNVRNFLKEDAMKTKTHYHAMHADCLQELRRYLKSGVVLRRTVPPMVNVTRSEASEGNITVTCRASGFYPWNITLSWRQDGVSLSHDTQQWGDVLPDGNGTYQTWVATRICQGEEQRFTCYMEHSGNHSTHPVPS
Briefly: IHC with hybridoma supernatant on FFPE C1R MICA*001 cell pellet, Ventana, CC1 or CC2. As for the experimental part: (§1) In parallel to the phenotyping by flow cytometry, the cell lines were fixed in formalin and embedded in paraffin. Briefly, 20×10⁶ to 40×10⁶ cells were fixed for 1 hour with formalin 4%. The cells were washed twice in PBS, and there were resuspended in Histogel. The cell pellets were dehydrated and embedded in paraffin. For each cell line, several FFPE cell pellets were made A mix of cells (C1R MICA*008 (15.10⁶ cells) and C1R MICB (15.10⁶ cells)) was also were embedded in paraffin. Sectioning of FFPE cell pellets was performed and MICA/B staining done by IHC. Briefly, 5 μm-thick sections were incubated dewaxed, submitted to an antigen retrieval step and incubated with immune or non-immune sera, hybridoma supernatants, chain combinations Abs or purified and commercial Abs followed by a signal amplification step. Enzymatic revelation was finally performed using 3, 3′-diaminobenzidine (DAB). For the IHC stainings with the mouse sera, staining interpretation was done by attributing a percentage of stained cells in the pellet section as well as an intensity score using the following criterion: “−”: negative staining; “+”: weak positive staining; “++”: intermediate IHC signal in intensity and “+++”: strong positive staining. […]

In a further test the target is T2, human MICA*008 (human, UniProt Q29983 24-297).
T2 construct: C1R-neo cells transfected with human MICA*008, formalin fixed and paraffin embedded (or live cells for flow cytometry); transmembrane and cytoplasmic parts are not in the entry; also called C1R MICA*008 cells
T2 chain: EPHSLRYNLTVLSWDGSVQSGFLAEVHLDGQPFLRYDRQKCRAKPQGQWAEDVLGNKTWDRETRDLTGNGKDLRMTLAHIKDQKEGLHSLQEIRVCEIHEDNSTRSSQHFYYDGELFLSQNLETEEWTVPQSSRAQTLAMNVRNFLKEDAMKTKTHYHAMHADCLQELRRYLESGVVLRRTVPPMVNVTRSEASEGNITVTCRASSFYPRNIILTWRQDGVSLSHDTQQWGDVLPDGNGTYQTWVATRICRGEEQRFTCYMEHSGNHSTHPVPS
Description: IHC with hybridoma supernatant on FFPE C1R MICA*008 cell pellet, Ventana, CC1 or CC2. The procedure: as §1

B1: antibody 12C9 (antibody, V domains shown)
VH: EIQLQQSGPELEKPGASVKISCKASGYAFTGYYMNWMKQRNGKSLDWIGTINPYYGSSTYNQKFKGKATLTVDESSSTAYMQLTSLTSEDSAVYYCARVDGDHGYFDYWGRGTTLTVSS
VL: DVVMTQTPLSLPVSLGDQASISCRSSQSLVHSNGNTYLHWYLQKPGQSPKLLIYKVSTRFSGVPDRFSGSGSGTDFTLKISRVEAEDLGVYFCSQSTHVPFTFGSGTKLEIK
notes: Produced as a mouse antibody with mouse gamma1 chain (mIgG1 isotype)
Take B1: the binding result with human MICA*001 and in the test with human MICA*008 was “binds” in each case.

These data come from patent US20230296611A1 (INNATE PHARMA, published 2023).
